Source: the supplement of paper PMC9170038

test system: K4 kissing-loop RNA reporter; test: apparent KD of K4 kissing-loop reporter; higher = weaker reporter binding; conditions: Eterna round: R107; input ligand: arginine 13.2 mM
Procedure: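 RNA-MaP round R107: designed RNA switches with theophylline, tryptophan, arginine or FMN aptamers are transcribed on-chip within common flanks. They are titrated with a labelled K4 kissing-loop RNA reporter in RNA-MaP buffer (100 mM Tris pH 7.5, 80 mM KCl, 4 mM MgCl2), without ligand or with the indicated ligand. Median apparent KD per design.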
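Note: bound reporter read as fluorescence of individual clusters on recovered sequencing chips by microscopy, with normalized cluster intensities fitted with a binding model.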

Row | Sequence | apparent KD of K4 kissing-loop reporter
1 | AAGAGUAAACUCUAACUCCUUAAGUCCGAAGGAGCGACUCAAUGGUCAGGUAGGUCGCGGACAAUCCUAGUGAUGUUAGGAUCUG [Arg A SS t5] | 220 nM
2 | AGUCGCAGUGAUGUUGCGAUUCCGUUGAGGGAGGAUAUUGGUAAUACAAGAAGGCCCGGCUGCGGGUGAUGUUCGCAAUAGGGCC [Exclusion FMN A GF19] | 108 nM
3 | UACGUUUUAUUAACACUAAAUACAACUGAAGGAGCGACAAUAAAGUCAGGUAGGUCGCAGAAUUAAUGAGUGAUGUUCAUUUUUA [JR_ExcArginiA_Sub015] | 117 nM
4 | GCCGUAGAUUGAAGGAGCGGACAGAUACGGGUAUCCAGUGAUGUUGGAAGGUAGCUACUAGUCCAGGUAGGUCGCAAUCUACGGC | 111 nM
5 | GGAUAGGACAGAGGAUAUCCAGUGAUGUUGGAGAAUUCUCCUUAAACAUGUCACAAAAGUGGCAUGGGAGAAGGCUGUCCUAUCG [Mod of Eli's FmnBX 29 v1] | 123 nM
6 | UCUUUUGUAUAUGAUACCAGCAGUGAGAGACAGGAAGUAUAGUGAUGUUAUAUGAGAGAAUGCCCUUGGCAGCGUGUGCGGUGGG [SSTheophylB.U] | 146 nM
7 | CCUUCUCUUGAUAGUGAUGUUAUCAAGGGCAAGGAUAUCAUUUUAAUGAGAAGGUGUCCUUGAUAACAUGGAGGUCUGAAACAGA [Omei KL FMN A Exc C v6] | 86.6 nM
8 | ACACUAUCGUCAUAGACGGUAGUGACAUCUCAGGAUAUAAGUGAUGUUAGAAGGGAGAAAAUCUUAGGUAUCGAAUAGAUACCAA [FmnA 8 #K4BetweenAptamer #OpenEnded] | 1100 nM
9 | CCCUCACGAGUGAUGUUCGUAGGGUACAGUCAGGAUAUCAUGCGGUUGAGAAGGGACAGAGAGGGCGGCCACGGGUUGCUCAUCU [Tiongequ] | 288 nM
10 | GAAAGAAAGUAUGAUACCAGACACCCGAGUGAUGUUCGGAACAGUGUGUUGUUCUUUUAAGUCCCUUGGCAGCAUAAAAGAAAAG [whbob_SS_Theo_B_sa86] | 143 nM
11 | UGUACCGAGUCAGGAUAUGGUAUAGCGGAAACGCACCAGUGAUGUUGGACGCGAAAGCGAUAAAAUCCAGAAGGGACUUGGUACU [FmnBS 20 #SwitchBubble #StaticStem #DoubleMagnetSystem] | 224 nM
12 | GGAUAGGACAGAGGAUAUGGUAGUGAUGUUACCAAACUGGUUACUCUUGUCAGAAAACUGGCAUCUCUAGAAGGCUGUCCUAUCG [KL-XFMN-B9] | 156 nM
13 | ACUGGAAACAUCACGUAUCCAAAACUGGAUACCAGCUCGGAAACGAGCCCUUGGCAGCCAGAACUUGCAGUGAUGUUGCAAGUAA [Design9] | 323 nM
14 | UGUACCGAGGCAGGAUAUGUCGUCGAAAGACGAAAUGGAGUGAUGUUCCUUAAACUGCGAAAGCAGACAGAAGGGCCUUGGUACU [FmnBS 29 G10+C76] | 179 nM
15 | CACCCUGGACAAGGAUAUAUCAUGCGCCAAGGGCAGUGAUGUUGCCACAGGCUUGGGUCCAGUUCGAUAGAAGGUGUCUGGUAUU [theeternabot_sameState_KL_FMN_B_4] | 174 nM
16 | GGCACGGGCUCGGCCGCCACUCCCGCGGGUCGUAAGGUCCGCUACUGAGUGAUGUUCGGUUGGAGGAGGACCGGGAGCCCGUGCC [#2 Exclusion - Tryptophan B Attempt #20 (HarryS)] | 220 nM
17 | GCCAGAGCGCGAAGGAGCGCCGUGACAGGUUGCUGCCGUGGGCAGUGAUGUUGCUCAGUCUGGCAGGUAGGUCGCGUGCUCUGGC | 173 nM

Row | Sequence | apparent KD of K4 kissing-loop reporter
18 | GGGAUGUAGUGAUGUUAUAUUGGAUGUAGACGAGGACCGGUACGGCCGCCACUCGUGAUGGCUGCUAGCACGUUUCGAUGUUUGC [ExTryptoA.Cs] | 429 nM
19 | UUAGAGAUCUCAGGAUAUCAGUGAUGUUGUGAUCCAGAUCUGAGAUAGAAUUCUAUCUCAGAUCAAUGAGAAGGGAGAUCUCAUU [AK4.3 Exc FMN B] | 1200 nM
20 | UAAUUUAUAACUUUUAUAUAAUAAUCAGAUACCAGUGAUUAAUGUCACCCUUGGCAGCUGUAUAGAGUGAUGUUCUAAUGCUUAA [JR_SSTheophyA_Sub023] | 198 nM
21 | GCACGAGUGAUGUUCGUUGGCAUGCAUUCCGAGGAUAUGGGAUUAGCCAGAAGGCGGAAUCGGUCUUCGAGUGAUGUUCGAAGAU [Same State FMN A GF 13] | 87.8 nM
22 | ACCAUCAAAGAUGGCCAGGACUCCGCUGAUACCAGAGUGAAAACACUCCCUUGGCAGCAGGUGAGUGAUGUUCACAAGUCCUGGA [Omel KL Theo A SS B v5] | 693 nM
23 | UUUAUAGUGACGGCCGCCACUAUAUUAAUGUUUAGGUUAGAGUGAUGUUUUGAUUAAUAUUUUUAUAGGACCGGGUUAUAUGUUU [ggbvmullin] | 488 nM
24 | UGGGAUGUUAAAGGAUAUAGAAAGUGAUAUUAGAAAGUGAGUGAUGUUGAUGUAGGUGAUGAUAUGUUAGAAGGUUAACAAAACG [abcde] | 219 nM
25 | AUUGUAUACUGAAGGAGCGAGUAGUGGAAACAUAAACUCAUUGCGAGUGAUGUUCGCAGUACUCAGGUAGGUCGCAGUAAUGGUA [Exclusion Arginine B Gf 9] | 167 nM
26 | AAUAUAUAGUGAAGGAGCGCGUAUAGCAGUGAUGUUGCUUACUUAUUAUUAUAUUUUUUGACGCAGGUAGGUCGCACUAUAUAUA [JR_ExcArginiB_Sub021] | 181 nM
27 | GAUCGAUGUCAGGAUACCAGCGGAAUCGUCGGAGACUCGAGUGGAGUGAUGUUCCCAGCACGCCCUUGGCAGCCUUGUUUAAGAU [theeternabot_sameState_KL_Theo_B_19] | 199 nM
28 | GCUAGUGCCCGCUCGAAAGAGCGUGUGUGUAAGGAUAUCUAGUAAUAGAGAAGGUACGGAGUGAUGUUCCCACACGGGCACUAGC | 600 nM
29 | UAGGUGCCGAACCAGUGAUGUUGGAGUCAUCGAGGACCGGUACGGCCGCCACUCGGCAGCGCCGGCGCGAUUAAUUGCGGAGACA [theeternabot_sameState_KL_Trp_A_7] | 390 nM
30 | UGUACCGAGUCAGGAUAUGGCGUCGAAAGACGAAUCUUAGUGAUGUUAAGGAUCUGCGAAAGCAGUCCAGAAGGGACUUGGUACU [FmnBS 26 U37+A49] | 422 nM
31 | GAUCUGAACGAAAGUUCGGAUCAGUCCGAUACCAGUAUGGAUUCAUACCCUUGGCAGCGGUUAUCUGCUAUGGAGUGAUGUUCCU [Theophylline A K4 12] | 332 nM
32 | CGACCGGUAGCGGAUACCAGCCUUUGAGUGAUGUUCGAGUUGAGUUUCCGCGCGUCGAAAGGCCCUUGGCAGCCGAUACGCCUUC [theeternabot_exclusion_KL_Theo_B_14] | 192 nM
33 | UGUUAUGUAUCAGGAUAUUAGUGAUGUUUGUUUAUGUUAGUGAUGUUGAUAUUUGUUUUAUGUAUUUAAGAAGGGAUUGUGAUGU [xexxmullin] | 23.1 nM

same assay, conditions: Eterna round: R107; input ligand: none

Row | Sequence | apparent KD of K4 kissing-loop reporter
34 | UGUGUUUACCUGACUCAGUGAUGUUGAGAAGGAGCGUGCGAAAGCACAGGUAGGUCGCUCAACCUAAAUUCAGGUGAGCACUAAA [#SwitchBubble 10 #K4Early] | 341 nM
35 | AUCACAGUGAUGUUGUGAUAUACUUCAGAUACCAGACUAGUGCUAGUCCCUUGGCAGCUGAACUCAGCAGCACCACUAGCACUCG [Theo A Ex t6a] | 139 nM
36 | GUAGCACUUGAUAGUGAUGUUAGCAAGGGCAAGGAUAUCAUCUCAAUGAGAAGGUGUCCUUGCUAACAGCUACGGGAAUAUCCCA [Omei KL FMN A Exc D v5] | 577 nM
37 | GGCAGAGCGCGAAGGAGCGCCCUGACAGGUUGCUGCCGUGGGCAGUGAUGUUGCUCAGUCCGGCAGGUAGGUCGCGUGCUCUGCC | 225 nM
38 | CGAACACCCUCGGCCGCCACUAGCCGUAGCCUGCGCUUGCGGAGUGAUGUUCUGAAGCAGGAUGUUAGGACCGGGAGCUACAUCC [theeternabot_sameState_KL_Trp_B_33] | 446 nM
39 | AUCUUGCAUUCGGCCGCCACUAUCGUGCAGUGAUGUUGCGCGAGUGACGCGUCCCGCAGUGCAGGUAGGACCGGGAAUGAUACCC [Erlazaar] | 123 nM
40 | UACAUAUAAUUAUUUCUACAUUUAUUUAGUCAGGAUAUCGAUUAAACGAGAAGGGACAAUAUCAAGUGAUGUUUGAUAAUUCAAA [JR_ExcFMNA_Sub010] | 75.4 nM
41 | UCGAAGGAUGGAAGGAGCGCUCGUCAGUCCUGCGAGUGAUGUUCGUGGGUAAAUAGUCGCGAGCAGGUAGGUCGCCAUCUUGAGA [Lageso] | 101 nM
42 | AGUACGCCCAGUGAUACCAGCCCGCCUGGGCAGUGAUGUUGCUCGGGAAAUAAAAUAGAGGGCCCUUGGCAGCACACGGUAGUCC [Cees] | 189 nM
43 | AGGUUUUGAUUAGGAUAUGCACUGAGGACGAGAAUAUAGUGAUGUUAUAUAAUAGGAAUUAGUAGAGUAGAAGGGAUUGAGGUUU [SSFMNB.V] | 183 nM
44 | AAGAGUAAACUCUAACUCCUUAAGUCCGAAGGAGCGACUCAAUGGUCAGGUAGGUCGCGGACAAUCCUAGUGAUGUUAGGAUCUG [Arg A SS t5] | 268 nM
45 | AGUCGCAGUGAUGUUGCGAUUCCGUUGAGGGAGGAUAUUGGUAAUACAAGAAGGCCCGGCUGCGGGUGAUGUUCGCAAUAGGGCC [Exclusion FMN A GF19] | 117 nM
46 | UACGUUUUAUUAACACUAAAUACAACUGAAGGAGCGACAAUAAAGUCAGGUAGGUCGCAGAAUUAAUGAGUGAUGUUCAUUUUUA [JR_ExcArginiA_Sub015] | 65.9 nM
47 | GCCGUAGAUUGAAGGAGCGGACAGAUACGGGUAUCCAGUGAUGUUGGAAGGUAGCUACUAGUCCAGGUAGGUCGCAAUCUACGGC | 304 nM
48 | GGAUAGGACAGAGGAUAUCCAGUGAUGUUGGAGAAUUCUCCUUAAACAUGUCACAAAAGUGGCAUGGGAGAAGGCUGUCCUAUCG [Mod of Eli's FmnBX 29 v1] | 122 nM
49 | UCUUUUGUAUAUGAUACCAGCAGUGAGAGACAGGAAGUAUAGUGAUGUUAUAUGAGAGAAUGCCCUUGGCAGCGUGUGCGGUGGG [SSTheophylB.U] | 114 nM
50 | CCUUCUCUUGAUAGUGAUGUUAUCAAGGGCAAGGAUAUCAUUUUAAUGAGAAGGUGUCCUUGAUAACAUGGAGGUCUGAAACAGA [Omei KL FMN A Exc C v6] | 114 nM
51 | ACACUAUCGUCAUAGACGGUAGUGACAUCUCAGGAUAUAAGUGAUGUUAGAAGGGAGAAAAUCUUAGGUAUCGAAUAGAUACCAA [FmnA 8 #K4BetweenAptamer #OpenEnded] | 1270 nM
52 | CCCUCACGAGUGAUGUUCGUAGGGUACAGUCAGGAUAUCAUGCGGUUGAGAAGGGACAGAGAGGGCGGCCACGGGUUGCUCAUCU [Tiongequ] | 372 nM
53 | GAAAGAAAGUAUGAUACCAGACACCCGAGUGAUGUUCGGAACAGUGUGUUGUUCUUUUAAGUCCCUUGGCAGCAUAAAAGAAAAG [whbob_SS_Theo_B_sa86] | 151 nM
54 | UGUACCGAGUCAGGAUAUGGUAUAGCGGAAACGCACCAGUGAUGUUGGACGCGAAAGCGAUAAAAUCCAGAAGGGACUUGGUACU [FmnBS 20 #SwitchBubble #StaticStem #DoubleMagnetSystem] | 209 nM
